In general, Tm refers to the temperature at the midpoint of the melting transition.

The conditions of this data set: Escherichia coli (strain K12), Thermal, CD, NaCl 0.1 M, reversible: yes, whole UniProt chain shown.

B1: Ribonuclease HI wild type, P0A7Y4 (protein)
chain: MLKQVEIFTDGSCLGNPGPGGYGAILRYRGREKTFSAGYTRTTNNRMELMAAIVALEALKEHCEVILSTDSQYVRQGITQWIHNWKKRGWKTADKKPVKNVDLWQRLDAALGQHQIKWEWVKGHAGHPENERCDELARAAAMNPTLEDTGYQVEV
Consider B1, for which the Tm is, setting by setting: (pH 3, glycine-HCl 10 mM) 50.9 °C; (pH 5.5, Sodium acetate 10 mM) 52.5 °C. Besides, the “unfolding enthalpy (van 't Hoff)” value was determined as 106 kcal/mol (pH 3, glycine-HCl 10 mM) and 81.8 kcal/mol (pH 5.5, Sodium acetate 10 mM).

These data come from FireProtDB (doi:10.1021/bi00025a018).
